Experimental data reported in patent US20150004162A1 (I2 PHARMACEUTICALS, published 2015).

T1: DcR2 (human, UniProt Q9UBN6 56-189, limits assumed)
T1 construct: Recombinant protein coated on wells; also called decoy receptor DcR2
T1 sequence: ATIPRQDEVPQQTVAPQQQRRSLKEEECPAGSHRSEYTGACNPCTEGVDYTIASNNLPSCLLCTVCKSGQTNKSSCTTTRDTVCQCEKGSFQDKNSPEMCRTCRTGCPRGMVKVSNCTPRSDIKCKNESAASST

T2: DcR1 (human, UniProt O14798 24-159, limits assumed)
T2 construct: Recombinant protein coated on wells; also called decoy receptor DcR1
T2 sequence: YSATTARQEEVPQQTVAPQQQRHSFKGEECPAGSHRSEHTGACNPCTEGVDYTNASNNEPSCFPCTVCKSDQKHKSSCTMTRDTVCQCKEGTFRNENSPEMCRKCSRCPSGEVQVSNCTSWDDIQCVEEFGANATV

T3: human DR4 (human, UniProt O00220 24-239, limits assumed)
T3 construct: Recombinant DR4 coated on ELISA wells; also called death receptor 4; TRAIL-R1
T3 sequence: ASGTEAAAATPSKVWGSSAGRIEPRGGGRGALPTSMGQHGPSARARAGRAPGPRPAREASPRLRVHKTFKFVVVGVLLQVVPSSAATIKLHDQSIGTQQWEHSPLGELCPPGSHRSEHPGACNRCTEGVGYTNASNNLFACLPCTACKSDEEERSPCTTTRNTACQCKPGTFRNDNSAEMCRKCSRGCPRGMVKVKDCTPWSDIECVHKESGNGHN

T4: DR4 on Ramos cells (human, UniProt O00220 24-468)
T4 sequence (looked up): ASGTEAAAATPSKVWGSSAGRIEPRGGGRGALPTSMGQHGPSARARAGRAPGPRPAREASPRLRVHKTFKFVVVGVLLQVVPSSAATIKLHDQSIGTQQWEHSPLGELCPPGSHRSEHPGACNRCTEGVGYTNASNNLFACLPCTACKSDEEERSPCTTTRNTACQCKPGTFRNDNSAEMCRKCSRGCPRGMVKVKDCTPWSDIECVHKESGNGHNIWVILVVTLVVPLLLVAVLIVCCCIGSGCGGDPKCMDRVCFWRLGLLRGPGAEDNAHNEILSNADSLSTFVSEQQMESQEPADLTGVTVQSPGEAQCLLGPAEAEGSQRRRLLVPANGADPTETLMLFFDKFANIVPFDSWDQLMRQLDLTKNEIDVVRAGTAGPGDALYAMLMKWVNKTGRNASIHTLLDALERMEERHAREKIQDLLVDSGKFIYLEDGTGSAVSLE

T5: mouse DR5-Fc (mouse, UniProt Q9QZM4 53-177, limits assumed)
T5 construct: also called mouse death receptor; not shown: Fc part
T5 sequence (looked up): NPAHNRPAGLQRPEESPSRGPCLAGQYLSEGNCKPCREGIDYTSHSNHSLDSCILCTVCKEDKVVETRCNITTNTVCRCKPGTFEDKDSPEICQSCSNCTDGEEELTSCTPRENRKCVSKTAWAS

T6: Rhesus (NHP-2) DR4-Fc (Rhesus, UniProt F6TP00 24-239)
T6 construct: also called Rhesus DR4-Fc
T6 sequence: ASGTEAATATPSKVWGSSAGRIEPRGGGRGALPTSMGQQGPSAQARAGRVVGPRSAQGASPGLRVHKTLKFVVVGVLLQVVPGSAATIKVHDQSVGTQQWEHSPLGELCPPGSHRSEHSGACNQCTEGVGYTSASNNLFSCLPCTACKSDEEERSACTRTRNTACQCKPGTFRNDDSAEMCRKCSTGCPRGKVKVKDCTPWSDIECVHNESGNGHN


How the values were obtained:
[1] = molecular target: T1, DcR2; experiment: ELISA, bivalent SBP on TRAIL receptor family proteins [C]
Description: (§1) The bivalent SBP were detected using an anti-human Fc antibody conjugated to HRP.

[2] = molecular target: T2, DcR1; experiment: as above
Description: as §1

[3] = molecular target: T3, human DR4; experiment: antigen ELISA, half-log dilutions on coated human DR4, anti-human Fc-HRP
Description: as §1

[4] = molecular target: T7, human DR5 (human, UniProt O14763 52-183, limits assumed); experiment: antigen ELISA, half-log dilutions on coated human DR5, anti-human Fc-HRP
T7 construct: also called sDR5 (Peprotech); death receptor 5
Description: as §1

[5] = molecular target: T4, DR4 on Ramos cells; experiment: cell-based or functional assay
[6] = molecular target: T7, human DR5; experiment: ELISA, half-log dilutions on wells coated with 1 microgram/ml human DR5, anti-human Fc HRP
Description: as §1

[7] = molecular target: T3, human DR4; experiment: ELISA, half-log dilutions on wells coated with 1 microgram/ml human DR4, anti-human Fc HRP
Description: as §1

[8] = molecular target: T8, Rhesus (NHP-2) DR5-Fc (Rhesus); experiment: ELISA, wells coated with 1 microgram/ml antigen, half-log dilutions, detection with anti-VpreB-HRP; inset table has no row label, the text calls the values half-maximal binding concentrations; unit from the axis Log[Agent] (nM) [panel D]
T8 construct: also called Rhesus DR5-Fc
Description: (§2) Streptavidin-HRP or a monoclonal anti-VpreB-HRP conjugated antibody was used for detection and the assay developed with a TMB solution.

[9] = molecular target: T5, mouse DR5-Fc; experiment: ELISA, 100 ng/well mouse DR5-Fc, 10 nM bivalent SBP, detection HRP-aVpreB
[10] = molecular target: T9, Cynomolgus (NHP-1) DR5-Fc (Cynomolgus); experiment: ELISA, wells coated with 1 microgram/ml antigen, half-log dilutions of SgG, detection with anti-VpreB-HRP; unit taken from the axis Lg(nM) [panel B]
T9 construct: also called Cynomolgus DR5-Fc
Description: as §2

[11] = molecular target: T10, Cynomolgus (NHP-1) DR4-Fc (Cynomolgus); experiment: ELISA, wells coated with 1 microgram/ml antigen, half-log dilutions of SgG, detection with anti-VpreB-HRP; unit taken from the axis Lg(nM) [panel A]
T10 construct: also called Cynomolgus DR4-Fc
Description: as §2

[12] = molecular target: T6, Rhesus (NHP-2) DR4-Fc; experiment: ELISA, wells coated with 1 microgram/ml antigen, half-log dilutions, detection with anti-VpreB-HRP; inset table has no row label, the text calls the values half-maximal binding concentrations; unit from the axis Log[Agent] (nM) [panel C]
Description: as §2

T7 sequence (O14763 other isoform, or with tags, fused parts or gaps limits assumed): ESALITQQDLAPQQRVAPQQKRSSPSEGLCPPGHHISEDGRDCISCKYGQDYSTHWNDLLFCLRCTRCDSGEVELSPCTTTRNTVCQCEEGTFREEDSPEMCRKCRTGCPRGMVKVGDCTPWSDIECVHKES

binding result [1]	binding result [2]	EC50 [3] [nM]	EC50 [4] [nM]	EC50 (nM), inhibition of Ramos cell proliferation (WST-1), SgG cross-linked with anti-human-Fc antibody or Protein G [5] [nM]	EC50 [6] [nM]	EC50 [7] [nM]	EC50 [8] [nM]	binding result [9]	EC50 [10] [nM]	EC50 [11] [nM]	EC50 [12] [nM]	Binder
no binding (tested: 1000 nM)	no binding (tested: 1000 nM)	~0.03	0.05	0.498	0.0502	0.0298	0.627	no binding (tested: 10 nM)	–	–	–	3631-G09 bivalent SBP (other, IgG1-like surroglobulin: full length heavy chain paired with surrogate light chain fusion 1, made in HEK293, Protein A purified; also called SL231; SL-231; copies: 2 + 2) VH: EVQLVESGGGLVKPGGSLRLSCAASGFTFSTYGMHWVRQAPGKGLEWVAGINYSGNNKYYADSVKGRFTISRDNAKNSLYLQMNSLRAEDTAVYYCARDHSTWLSRHLDYWGQGTLVTVSS surrogate light: QPVLHQPPAMSSALGTTIRLTCTLRNDHDIGVYSVYWYQQRPGHPPRFLLRYFSQSDKSQGPQVPPRFSGSKDVARNRGYLSISELQPEDEAMYYCAMGARSSVTHVFGSGTQLTVLSQPKATPSVTLFPPSSEELQANKATLVCLMNDFYPGILTVTWKADGTPITQGVEMTTPSKQSNNKYAASSYLSLTPEQWRSRRSYSCQVMHEGSTVEKTVAPAECS
–	–	–	–	–	–	–	0.294	–	0.273	6.36	146	3706-A02 (SL466) (other, Bivalent SBP (SgG); also called SgG) VH: EVQLVESGGGLVKPGGSLRLSCAASGFTFSTYGMHWVRQAPGKGLEWVAGINYSGNNKYYADSVKGRFTISRDNAKNSLYLQMNSLRAEDTAVYYCARDSSTTRTRALDYWGQGTLVTVSS light: QPVLHQPPAMSSALGTTIRLTCTLRNDHDIGVYSVYWYQQRPGHPPRFLLRYFSQSDKSQGPQVPPRFSGSKDVARNRGYLSISELQPEDEAMYYCAMGARSSVTHVFGSGTQLTVLSQPKATPSVTLFPPSSEELQANKATLVCLMNDFYPGILTVTWKADGTPITQGVEMTTPSKQSNNKYAASSYLSLTPEQWRSRRSYSCQVMHEGSTVEKTVAPAECS
